Results reported in patent US20020002277A1, “Inhibitors of platelet activation and recruitment” (priority 1998, published 2002).

Key:
[1] = Phosphate release assay for ATPase activity; format: biochemical; conditions: for CPM × 10^3 (net counts), ATPase activity in CM: 5 days (Table 3)
Experimental: This example describes an ATPase assay that may be used to track enzyme activity. Samples (approximately 100 μl of either concentrated CM or purified polypeptide) are combined with 20 μl of 10X assay buffer (200 mM HEPES, 1.2 M NaCl, 50 mM KCl, 15 mM CaCl2, 15 mM MgCl2 and 3 mM ATP) and sterile water is added to a final volume of 200 μl. Radiolabeled ATP (0.8 μCi γ [^32P] ATP; Amersham, Arlington Heights, Ill.) is added and the mixture incubated for 20 minutes at 37° C. Stop mix (0.5 ml of 20% activated charcoal/1 M HCl) is added and the reaction is placed on ice for 10 minutes. After centrifugation (14K rpm for 10 minutes), the supernatant is assayed for free ^32P using a scintillation counter. Data are expressed as raw counts or net counts, or as picomoles of ATP degraded per minute.
The transfections were repeated and the CM (10, 20 and 30 μL, unconcentrated) was assayed essentially as described in Example 7. […] ATPase levels in CM from COS-1 cells transfected with pIL2LFlagSolCD39 increased with time in culture over at least 4 days post-transfection.
To determine whether activity was affected by removal of the N-terminal FLAG® tag, COS-1 cells were transfected with pIL2LFlagSolCD39 and pIL2LSolCD39 and supernatants (sups) were harvested after 5 days. Samples of 10, 20 and 30 μL of 1x sups were assayed for ATPase activity as described in Example 7.
The expression of Trim1 and Trim2 constructs was analyzed in COS-1 cells cultured in 10 cm plates. After 5 days of incubation, 1x supernatants were examined via ELISA (using anti-CD39) and the phosphate-release assay described in Example 7. […] Expression levels, however, appeared to be reduced 3-4 fold.

[2] = Phosphate release assay for ATPase activity; format: biochemical; conditions: 100 μL of 10-fold concentrated CM from COS-1 transfectants; 10X buffer with 30 mM cold ATP

B1: pIL2LFlagSolCD39: N-terminally FLAG-tagged solCD39 with human proinsulin/IL2 leader and 12 mature IL2 residues (SEQ ID NO:25); COS-1 CM (protein)
chain: MALWIDRMQLLSCIALSLALVTNSAPTSSSTKKTQLTSSGDYKDDDDKTQNKALPENVKYGIVLDAGSSHTSLYIYKWPAEKENDTGVVHQVEECRVKGPGISKFVQKVNEIGIYLTDCMERAREVIPRSQHQETPVYLGATAGMRLLRMESEELADRVLDVVERSLSNYPFDFQGARIITGQEEGAYGWITINYLLGKFSQKTRWFSIVPYETNNQETFGALDLGGASTQVTFVPQNQTIESPDNALQFRLYGKDYNVYTHSFLCYGKDQALWQKLAKDIQVASNEILRDPCFHPGYKKVVNVSDLYKTPCTKRFEMTLPFQQFEIQGIGNYQQCHQSILELFNTSYCPYSQCAFNGIFLPPLQGDFGAFSAFYFVMKFLNLTSEKVSQEKVTEMMKKFCAQPWEEIKTSYAGVKEKYLSEYCFSGTYILSLLLQGYHFTADSWEHIHFIGKIQGSDAGWTLGYMLNLTNMIPAEQPLSTPLSHST
modifications: CDS (1)..(1461)
notes: COS-1 CM
For B1, the “CPM × 10^3 (net counts), ATPase activity in CM” value (shortened to “CPM × 10^3 (net counts)”) ([1]; 10 μL 1x COS-1 supernatant) was 23.6 CPM × 10^3, the “CPM Release × 10^3 (net counts), ATPase activity in CM” value (shortened to “CPM Release × 10^3 (net counts)”) ([1]; 10 μL unconcentrated COS-1 CM) was 24.71 CPM × 10^3 and the “CPM × 10^3 (net counts)” value ([1]; 20 μL 1x COS-1 supernatant) was 40.2 CPM × 10^3. For the same molecule, the “CPM Release × 10^3 (net counts)” value ([1]; 20 μL unconcentrated COS-1 CM) was 43.92 CPM × 10^3, the “CPM × 10^3 (net counts)” value ([1]; 30 μL 1x COS-1 supernatant) was 54.4 CPM × 10^3 and the “CPM Release × 10^3 (net counts)” value ([1]; 30 μL unconcentrated COS-1 CM) was 56.93 CPM × 10^3. For the same molecule, the “CPM Release × 10^3 (raw counts), ATPase activity in concentrated CM” value [2] was 99.96 CPM × 10^3.
